Key:
[1] = system: Retinal capillary endothelial cells (RCEC); experiment: Quantification of viable cells by MTT assay, RCEC; format: cell-based, bovine
Procedure: FIG. 2 illustrates the specific inhibition of endothelial cell proliferation by recombinant kallistatin. RCEC were treated with recombinant kallistatin at concentrations of 5,10, 20, 40, 80 and 160 nM for 72 h. Viable cells were quantified by MTT assay. […] This effect appeared to be kallistatin concentration-dependent, with an apparent IC50 of 50 nM (FIG. 2) which is similar to that of K5, a known angiogenic inhibitor (Zhang et al., 2001).
FIG. 7 illustrates the effects of B1 and B2 kinin receptor antagonists on RCEC. In order to test whether the anti-angiogenic activity of kallistatin is via reducing kinin production by inhibiting kallikrein activity, RCEC were treated with 5 μM des-Arg^9-[Leu^8]-bradykinin, a specific antagonist of the B1 kinin receptor or Hoe-140, a specific B2 kinin receptor antagonist, in the presence or absence of 40 nM kallistatin for 48 h, and viable cells were quantified by MTT assay.
Quantification of viable cells: Cells were plated in 12-well plates in triplicate and cultured in the growth medium until they reached 60-70% of confluency. The culture medium was replaced with a medium containing 1% fetal bovine serum (FBS). Recombinant kallistatin was added to the cover medium to various concentrations and incubated with the cells for 72 h. The viable cells were quantified by the MTT (3-[4,5-dimethylthiazol-2-yl]-2,5-dephenyl tetrazolium bromid, Roche, Mannheim, Germany) assay following a protocol recommended by the manufacturer. The effect of kallistatin on viable cell number was analyzed using Student's t test.

RCEC [2] = experiment: [3H] thymidine incorporation assay; format: cell-based, bovine; details: 5 to 160 nM
Procedure: [^3H] thymidine incorporation assay: RCEC were seeded in 24-well plates in 1:1 DMEM +F-12 nutrient mixture plus 10% FBS and cultured in a CO2 incubator to reach 60-70% confluency. The cells were washed 3 times with PBS and the growth medium replaced by a medium containing 1% FBS and different concentrations of kallistatin. After 24 h culture, [^3H] thymidine was added to the medium (2 μCi/well) and incubated with the cells at 37° C. for 12 h. Free [^3H] thymidine was removed by 3 washes with PBS, and a solution of 6% TCA was added to the wells. The TCA solution was removed, and the wells were washed once with PBS. The remaining material was solubilized with 200 μl of 1 M NaOH (Smith et al., 1999). Incorporated [^3H] thymidine was measured with a microplate scintillation counter (Packard Instrument Company, Meriden, Conn.).

RCEC [3] = experiment: Quantitative analysis of apoptosis by Annexin V/PI flow cytometry; format: cell-based, bovine; details: 24 h, 40-640 nM
Procedure: To determine whether kallistatin might induce cell death, RCEC were incubated with different concentrations of kallistatin or 10 μM chochicine for 24 h, and the apoptotic cells were quantified using the Annexin V-flow cytometry method. Phosphatidylserine externalization is a characteristic of cells undergoing apoptosis. The Annexin V-FITC kit allows for fluorescent detection of Annexin V bound to apoptotic cells and quantitative determination by flow cytometry. The Annexin V-FITC kit uses Annexin V conjugated with fluorescein isothiocyante (FITC) to label phosphatidylserine sites on the membrane surface. The kit includes propidium iodide (PI) to label the cellular DNA in necrotic cells where the cell membrane has been totally compromised. This combination allows the differentiation among early apoptotic cells (Annexin V positive, PI negative), necrotic cells (Annexin V positive, PI positive), and viable cells (Annexin V negative, PI negative) which can be located in the lower right, upper right, and lower left quadrants of the cytograms, respectively (FIG. 4a). Because only cells that are Annexin V-positive and PI-negative are truly apoptotic cells, the percentage of this cell population was quantified.
Quantitative analysis of apoptosis by flow cytometry: RCEC were plated at a density of 10^5 cells/well in 6-well plates. […] The cells were subsequently counted by flow cytometry.

VEGF [4] = experiment: VEGF in RCEC cell lysate by Western blot; format: cell-based, bovine; details: RCEC under hypoxia, 24 h, 40-640 nM
Procedure: FIG. 9 illustrates down-regulation of VEGF expression by kallistatin. As increased VEGF levels in the retina and vitreous play a key role in the development of retinal neovascularization, the effect of kallistatin on the expression of VEGF in cultured RCEC was determined. VEGF secreted into the conditioned medium was measured by VEGF ELISA and normalized by total protein concentration in the medium.
Measurement of VEGF in the conditioned medium of RCEC by ELISA: RCEC were seeded in T75 flasks in endothelial cell growth medium and cultured in a CO2 incubator to reach 60-70% confluency. The cells were washed 3 times with PBS and the growth medium replaced by a serum-free medium containing bFGF (GIBCO-BRL, Gaithersburg, Md.). Kallistatin was added to the medium to various concentrations and incubated with the cells for 24 h under normoxia or hypoxia (in a chamber that was perfused with a mixture of 95% N2+5% CO2). The conditioned medium was harvested for VEGF ELISA and the cells were used for Western blot analysis. The conditioned medium was centrifuged and the protein concentration in the supernatant was measured with BioRad protein assay. VEGF concentration was measured using a VEGF ELISA kit (R& D systems, Minneapolis, Minn.) and normalized by total protein concentration in the medium. […]

VEGF [5] = experiment: Retinal VEGF levels in OIR rats by Western blot; format: in vivo, Brown Norway rats; details: intravitreal injection of 25 μg, P<0.01
Procedure: The effect of kallistatin on VEGF expression was also examined in vivo. After intravitreal injection of 25 μg kallistatin, VEGF levels were determined in the retina with OIR.
Induction of retinal neovascularization and intravitreal injection of kallistatin: Retinal neovascularization was induced as described by Smith et al. (Smith et al., 1994) with some modifications. Briefly, newborn pigmented Brown Norway rats at postnatal day 7 (P7) were exposed to hyperoxia (75% O2) for 5 days and then normoxia. Animals were anesthetized, and kallistatin was injected into the vitreous of the right eye through the pars plana using a glass capillary. The left eye received the same volume of PBS as the control. After injection, the animals were kept in normoxia for another 5 days for further analyses.
Western blot analysis: One hundred micrograms of total protein were used for Western blot analysis of VEGF using an ECL detection kit (Amersham International plc, Piscataway, N.J.) (Gao et al., 2001). The same membrane was stripped and re-blotted with an antibody specific to β-actin. VEGF levels were normalized by β-actin.

B1: kallistatin: Recombinant His-tagged rat kallistatin (serpin, SEQ ID NO:1) expressed in E. coli and affinity-purified (protein, listed as Homo sapiens)
chain: DGILGRDTLPHEDQGKGRQLHSLTLASINTDFTLSLYKKLALRNPDKNVVFSPLSISAALAILSLGAKDSTMEEILEVLKFNLTEITEEEIHHQGFGHLLQRLSQPEDQAEINTGSALFIDKEQPILSEFQEKTRALYQAEAFVADFKQCNEAKKFINDYVSNQTQGKIAELFSELDERTSMVLVNYLLFKGKWKVPFNPNDTFESEFYLDEKRSVKVPMMKIKDLTTPYIRDEELSCSVLELKYTGNASALFILPDQGKMQQVESSLQPETLKKWKDSLRPRIISELRMPKFSISTDYNLEEVLPELGIRKIFSQQADLSRITGTKNLHVSQVVHKAVLDVDETGTEGAAATAVTAALKSLPQTIPPLNFNRPFMLVITDNNGQSVFFMGKVTNPM
modifications: His tag
[1]; 5 nM, 72 h, P<0.05
  viable cells vs control: significantly fewer viable cells than the control cells
[1]; 40 nM, 48 h, P<0.01
  viable cell numbers, % of the control: approximately 50 % of the control
[1]; 72 h, read-out: apparent IC50, viable cells
  IC50: 50 nM
RCEC [2]
  thymidine incorporation (cell proliferation rate): inhibited thymidine incorporation in RCEC in a concentration-dependent manner
RCEC [3]
  apoptosis (Annexin V-positive, PI-negative cells): increases apoptosis in RCEC in a dose-dependent manner
VEGF [4]
  VEGF levels in the cell lysate: reduced VEGF levels in the cell lysate of RCEC in a concentration-dependent manner
VEGF [5]
  retinal VEGF levels, % of the control: ~35 % of the control

Reference: US20070298997A1, “Compounds useful in treating diabetic microvascular complications and age-related macular degeneration” (priority 2003, published 2007)
